Experimental data as given in US20230331820A1 (GlaxoSmithKline, published 2023).
Where a chain is given by its changes, count along the chain named.

B1: mAb clone 34 (antibody, V domains shown)
VH: EVKLVESGGGLVQPGGSLKLSCATSGFTFSDYYMYWVRQTPEKRLEWVAYISNGGDSTYYPDTVKGRFTISRDNAKNTLYLQMSRLKSEDTAMYYCARSYYGNPFPYWGQGTLVTVSA
VL: ENVLTQSPAIMSASPGEKVTMTCRASSSVSSSYLHWYQQKSGASPKLWIYSTSNLASGVPARFSGSGSGTSYSLTISSVEAEDAATYYCQQYSGYPLTFGAGTKLELK
B2: mAb clone 19 (antibody, V domains shown)
VH: QVQLQQSGAELVRPGVSVKISCKGSGYTFTDYAMHWVKQSHAKSLEWIGVISTYYGDARYNQKFKGKATMTVDKSSSTAYMELARLTSEDSAIYYCARRGITVVADYAMDYWGQGTSVTVSS
VL: QIVLTQSPAIMSASPGEKVTMSCSASSSVTYMHWYQQKSGTSPKRWIYDTSKLASGVPARFSGSGSGTSYSLTISSMEAEDAATYYCQQWSSNPPTFGGGTKLEIK
B3: mAb clone 39 (antibody, V domains shown)
VH: EVKLVESGGGLVQPGGSLKLSCAASGFTFSSYTMSWVRQTPEKRLEWVAYISNGGGSTYYPDTVKGRFTISRDNAKNTLYLQMSSLKSEDTAMYYCARGVSYYGDLYYFDYWGQGTTLTVSS
VL: DVVVTQTPLSLPVSFGDQVSISCRSSQSLANSYGNTYLSWYLHKPGQSPQLLIYGISNRFSGVPDRFSGSGSGTDFTLKISTIKPEDLGMYYCLQGTHQPWTFGGGTKLEIK
B4: mAb clone 35, 36 (antibody, V domains shown)
VH: QVQLKESGPGLVAPSQSLSITCTVSGFSLTSYGVHWVRQPPGKGLEWLGVIWAGGSTNYNSALMSRLSISKDNSKSQVFLKMNSLQTDDTAMYYCATDGYKFFYYAMDYWGQGTSVTVSS
VL: DIVMTQAAPSVPVTPGESVSISCRSSKSLLHSNGNTYLYWFLQRPGQSPQLLIYRMSNLASGVPDRFSGSGSGTAFTLRISRVEAEDVGVYYCMQHLEYPFTFGSGTKLEIK
B5: mAb clone 43 (antibody, V domains shown)
VH: DVKLVESGGGLVKPGGSLKLSCAASGFTFSSYTMSWVRQTPEKRLEWVATISSGGSYTYYPDSVKGRFTISRDNAKNTLYLQMSSLKAEDTAMYYCTRGGYGSSFENYFDYWGQGTTLTVSS
VL: DIVMSQSPSSLAVSAGEKVTMSCKSSQSLLNSRTRKNYLAWYQQKPGQSPKLLIYWASTRESGVPDRFTGSGSGTDFTLTISSVQAEDLAVYSCKQSYNLPLTFGAGTKLELK
notes: also called GEGI/43IIa
B6: mAb clone 44 (antibody, V domains shown)
VH: EVQLQQSGPELEKPGASVKISCKASGYSFTGYNMNWVKQSNGKSLEWIGNIDPYYGGIRYNQKFKGKATLTVDKSSSTAYMQLKSLTSEDSAVYYCAREDRYLVHYYAMDYWGQGTSVTVSS
VL: B2 VL with S22T, V29I, T30S, S39P, Q88H, W90R, N93Y, P95Y
B7: mAb clone 47 (antibody, V domains shown)
VH: EVKLVESGGGLVQPGGSLRLSCATSGFTFTDYYMSWVRQPPGKALEWLGFIRNKANGYTTEYSASVKGRFTISRDNSQSILYLQMNTLRAEDSATYYCARDRPGFDYWGQGTTLTVSS
VL: NIVLTQSPASLAVSLGQRATISCRASESVDSFGNSFMHWYQQKPGQPPKLLIYLASNLESGVPARFSGSGSRTDFTLTIDPVEADDAATYYCQQNNEDPPWTFGGGTKLEIK
B8: mAb clone 14 (antibody, V domains shown)
VH: QVQLQQSGAELMKPGASVKISCKATGYTFSSYWIEWVKQRPGHGLEWIGEILPGSGSTNYNEKFKGKATFTADTSSNTAYMQLSSLTSEDSAVYYCASGSAGNYYGSSYEAMDYWGQGTSVTVSS
VL: DIVLTQSPASLAVSLGQRATISCRASKSVSTSGYSYMHWYQQKPGQPPKLLIYLASNLESGVPARFSGSGSGTDFTLNIHPVEEEDAATYYCQHSRELPLTFGAGTKLELK
notes: also called GEGI/14IIa

What follows are binders tested against T1, gEgI WT: HSV2 gEgI heterodimer comprising gE and gI wildtype ectodomains (HSV2, UniProt P89475 21-416; P06764 21-256) (assay: SPR binning; gEgI captured by mAb 19).

Binder	RU [RU]
B1	-8.4
B2	-3.4
B3	-7.2

The binders below were run against T1, gEgI WT: HSV2 gEgI heterodimer … (assay: SPR binning; gEgI captured by mAb 45).

Binder	RU [RU]
B1	-6.3
B2	9.2
B3	-5.4

What follows are binders tested against T1, gEgI WT: HSV2 gEgI heterodimer … (assay: SPR binning; gEgI captured by mAb 5).

Binder	RU [RU]
B1	-2.1
B2	17.2
B3	0.6

These binders were tested against T1, gEgI WT: HSV2 gEgI heterodimer … (assay: SPR binning; gEgI captured by mAb 15).

Binder	RU [RU]
B1	-2.7
B2	23
B3	-4.8

The binders below were run against T1, gEgI WT: HSV2 gEgI heterodimer … (assay: SPR binning; gEgI captured by mAb 42).

Binder	RU [RU]
B1	-2.4
B2	16.3
B3	0.1

The binders below were run against T1, gEgI WT: HSV2 gEgI heterodimer … (assay: SPR binning; gEgI captured by mAb 10).

Binder	RU [RU]
B1	1.3
B2	24.4
B3	2.3

Each binder was assayed against T2, gE WT: HSV2 gE wildtype ectodomain (HSV2, UniProt P89475 21-416) (assay: ELISA, supernatant).

Binder	binding result
B4	binds
B1	no binding
B5	binds
B2	no binding
B6	binds
B7	binds
B8	binds

What follows are binders tested against gEgI mutant (338): HSV2 gEgI mutant heterodimer comprising gE and gI ectodomains with insertion of a (HSV2, UniProt P89475 21-416; P06764 21-256) (assay: ELISA, supernatant).

Binder	binding result
B4	binds
B1	binds
B5	binds
B2	binds
B6	binds
B7	no binding
B3	binds
B8	binds

The binders below were run against T1, gEgI WT: HSV2 gEgI heterodimer … (assay: ELISA, supernatant).

Binder	binding result
B4	binds
B5	binds
B6	binds
B7	binds
B8	binds

The binders below were run against T3, gI WT: HSV2 gI wildtype ectodomain (HSV2, UniProt P06764 21-256) (assay: ELISA, supernatant).

Binder	binding result
B4	binds
B2	no binding
B6	binds

These binders were tested against gEgI mutant (R320D): HSV2 gEgI mutant heterodimer comprising gE and gI ectodomains with mutation R320D in gE (HSV2, UniProt P89475 21-416; P06764 21-256) (assay: ELISA, supernatant).

Binder	binding result
B4	binds
B5	binds
B6	binds
B7	no binding
B8	binds

These binders were tested against gEgI mutant (P319D): HSV2 gEgI mutant heterodimer comprising gE and gI ectodomains with mutation P319D in gE (HSV2, UniProt P89475 21-416; P06764 21-256) (assay: ELISA, supernatant).

Binder	binding result
B4	binds
B5	binds
B6	binds
B7	no binding
B8	binds

The binders below were run against gEgI mutant (P317R): HSV2 gEgI mutant heterodimer comprising gE and gI ectodomains with mutation P317R in gE (HSV2, UniProt P89475 21-416; P06764 21-256) (assay: ELISA, supernatant).

Binder	binding result
B4	binds
B5	binds
B6	binds
B7	no binding
B8	binds

These binders were tested against T1, gEgI WT: HSV2 gEgI heterodimer … (assay: SPR binning; gEgI captured by mAb 39).

Binder	RU [RU]
B1	-1.5
B2	16.2
B3	1.3

Each binder was assayed against T1, gEgI WT: HSV2 gEgI heterodimer … (assay: Biacore SPR, gEgI HEK BMP1063 at 10 µg/ml for 180 s over the mAb).

Binder	RU Ag/250 RU mAbs [RU Ag/250 RU mAbs]
B1	14.4
B2	7.88

The binders below were run against T1, gEgI WT: HSV2 gEgI heterodimer … (assay: SPR binning; gEgI captured by mAb 9).

Binder	RU [RU]
B1	-3.9
B2	6.4
B3	-1.5

What follows are binders tested against T1, gEgI WT: HSV2 gEgI heterodimer … (assay: SPR binning; gEgI captured by mAb 24).

Binder	RU [RU]
B1	-3.6
B2	3.2
B3	-0.9

These binders were tested against T1, gEgI WT: HSV2 gEgI heterodimer … (assay: SPR binning; gEgI captured by mAb 34).

Binder	RU [RU]
B1	-11.1
B2	9.3
B3	-6.4

Target: T2, gE WT: HSV2 gE wildtype ectodomain
Assay: ELISA, supernatant
Remark: another data set of the same source

Binder	binding result
B3	no binding

Target: T3, gI WT: HSV2 gI wildtype ectodomain
Assay: ELISA, supernatant
Remark: another data set of the same source

Binder	binding result
B1	no binding
B5	no binding
B7	no binding
B3	no binding
B8	no binding

The binders below were run against T1, gEgI WT: HSV2 gEgI heterodimer … (assay: SPR binning; gEgI captured by mAb 17).

Binder	RU [RU]
B1	-3.3
B2	18.1
B3	-0.6

These binders were tested against T1, gEgI WT: HSV2 gEgI heterodimer … (assay: SPR binning; gEgI captured by mAb 40).

Binder	RU [RU]
B1	-4.1
B2	13.9
B3	-1.2

The binders below were run against T1, gEgI WT: HSV2 gEgI heterodimer … (assay: SPR binning; gEgI captured by mAb 20).

Binder	RU [RU]
B1	0.4
B2	9
B3	3.1

The binders below were run against T1, gEgI WT: HSV2 gEgI heterodimer … (assay: Biacore SPR, gEgI CHO BMP1181 at 10 µg/ml for 180 s over the mAb).

Binder	RU Ag/250 RU mAbs [RU Ag/250 RU mAbs]
B1	12.8
B2	6.49
